According to the supplement of paper PMC9170038:

Test system: MS2 coat protein
Test: apparent KD of MS2 coat protein; designed switch direction (-1 OFF switch, 1 ON switch): -1; higher = weaker reporter binding
Procedure, shortened: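 Stalled E. coli RNA polymerase transcribed designed RNA switches on Illumina chips, which were then titrated with SNAP-549-labelled MS2 coat protein, doubling from 0.7 or 1.5 nM to 3 µM. Steps lasted from 0.8–1.5 h at the lowest concentration to 10–20 min at the highest. The apparent KD is each design's median over clusters of curve-fitted normalised fluorescence.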

[1] = input ligand: microRNA oligo, concentration not stated
[2] = Eterna round: R95, input ligand: microRNA oligo, concentration not stated

Row | Sequence | apparent KD of MS2 coat protein (input ligand: FMN 200 uM) | apparent KD of MS2 coat protein (input ligand: none) | apparent KD of MS2 coat protein [1] | apparent KD of MS2 coat protein (Eterna round: R95, input ligand: FMN 200 uM) | apparent KD of MS2 coat protein [2] | apparent KD of MS2 coat protein (Eterna round: R95, input ligand: none)
1 | UGUAGUUCAGGAUAUGAUGUAUAAUACAUGAGGAUCACCCAUGUAGAUCCUGAAUUUACAUCAGAAGGGAAUAUUU [JL-ex5-4.58 Brourd mod] (Eterna round: R97, puzzle: Exclusion 5) | 20.4 nM | 15.4 nM | – | – | – | –
2 | UGUAUUAGGUCAGGAUAUACAUGAGGAUCACCCAUGUACAUGGAGCGAGUACAGUAUCAUGCAAGGUAGAAGGGACAGUCGACG [success! :D] (Eterna round: R96, puzzle: Exclusion NG 2) | 21.6 nM | 24.3 nM | 15.7 nM | – | – | –
3 | UGUCUACAUGAGGAUCACCCAUGUCAGGAUAUGCUCGAUAUAUGGAAACAUAUAUCGAGCAGAAGGGACUAGCG [Jieuxxlusion 5 - Jieux - Exclusion 1] (Eterna round: R97, puzzle: Exclusion 1) | 53.5 nM | 28.4 nM | – | – | – | –
4 | UGUGGAGCUUAGGAUAUUGCUCUACCAAGAGGGCGAGAAGGGAGCACAUGAGGAUCACCCAUGUGGUCCGGAAC [Edoroner] (puzzle: Exclusion 6) | – | – | – | 26 nM | 14.7 nM | 14.6 nM
5 | UGUGUGAGACAGGAUAUGCCGGAUGUAUUACUGGUAGAAGGGUCUACAUGAGGAUCACCCAUGUGGCCGGCCGG [Ex6 #83] (Eterna round: R97, puzzle: Exclusion 6) | 31.3 nM | 21.1 nM | – | – | – | –
6 | UGUGUGUCAGGAUAUAGUUCGAGUUCGGAAAUGAGCUUGAGCUAGAAGGGACAUGAGGAUCACCCAUGUGCACG [-26.3, -25.3 kcal, A 27%, 1-(ca)1] (Eterna round: R97, puzzle: Exclusion 4) | 148 nM | 83.6 nM | – | – | – | –
7 | UGUUCGGUAGGAUAUACAUCGCUGAAGUGGCGGUGACUUCAACAUGAGGAUCACCCAUGUAGAAGGGCCGGCUC [EX2 C.4] (Eterna round: R97, puzzle: Exclusion 2) | 17.3 nM | 16.5 nM | – | – | – | –
8 | UGUUGUCGCGCAGGAUAUGCAUGAGGAUCACCCAUGCAAUUAGAGUUAACAUGAGGAUCACCCAUGUAGAAGGGCGGGACAACU [pwkr exNG2 2xF5 1xFMN.5] (Eterna round: R96, puzzle: Exclusion NG 2) | 65.1 nM | 54.2 nM | 27.6 nM | – | – | –
9 | UGUUGUCGCGUAGGAUAUGGCCAACAGGCCCUAGGAUAUCGGAAACGAGAAGGAGCGCCAACAGGCGAGAAGGACGGGACAACU [pwkr exNG2 2xF7 2xFMN.20] (Eterna round: R96, puzzle: Exclusion NG 2) | 33 nM | 10.7 nM | 52.7 nM | – | – | –
10 | UGUUGUUACGCAGGAUAUGGCCAACAGGCCCUAGGAUAUCCGAAAGGAGAAGGAGCGCCAACAGGCGAGAAGGGCGGGUUAACA [pwkr exNG2 2xF7 2xFMN.14] (Eterna round: R96, puzzle: Exclusion NG 2) | 201 nM | 140 nM | 55.7 nM | – | – | –
11 | UGUUGUUACGCAGGAUAUGUAUGAGGAUCACCCAUAAGAGUAUAUUUACCAUGAGGAUCACCCAUGUAGAAGGGCGGGUUAACA [pwkr exNG2 2xF5 1xFMN.10] (Eterna round: R96, puzzle: Exclusion NG 2) | 224 nM | 144 nM | 109 nM | – | – | –
12 | UGUUUACAUGAGGAUCACCCAUGUCAGGAUAUGAUCGAUAUAUGGAAACAUAUAUCGAUCAGAAGGGACUAGUG [Jieuxxlusion 2 - Jieux - Exclusion 1] (Eterna round: R97, puzzle: Exclusion 1) | 88.2 nM | 82.6 nM | – | – | – | –
13 | UUAAAUCAUGUAGGAUAUGCGUGGCGAAGCUAUGCAGAAGGACAUGAGGAUCACCCAUGUGCUUCCGUCUGCGUACAGACGGUA [JL ENG1 1.14] (Eterna round: R96, puzzle: Exclusion NG 1) | 258 nM | 91.2 nM | 79.2 nM | – | – | –
14 | UUAAAUCAUGUAGGAUAUGCGUGGCGAAGCUAUGCAGAAGGACAUGAGGAUCACCCAUGUUCUGCGGUCUGCGUACAGAUCGCU [JL ENG1 1.04] (Eterna round: R96, puzzle: Exclusion NG 1) | – | – | 14.9 nM | – | – | –
15 | UUAACGUCAGGAUAUGCAUAAUAUAUUAUAUUAUAAUAUAUACAUGAGGAUCACCCAUGUAGAAGGGACAUUAU [LRO-Excl2-01-Fireball XL5] (Eterna round: R97, puzzle: Exclusion 2) | 42.7 nM | 29.8 nM | – | – | – | –
16 | UUAAUUAAUAAUUAAGAUCAUUACAUGAGGAUCACCCAUGUCGAGGAUAUCAGCUCGUGUAGAGCUGAGAAGGCGACAAAUUAU [ExNG3/13-B3] (Eterna round: R96, puzzle: Exclusion NG 3) | 586 nM | 633 nM | 268 nM | – | – | –
17 | UUAGAAUUGUUAGGAUAUUAAUUAUUGUUUAGUAUGAUCUACAUGAGGAUCACCCAUGUUAAAUAUAAGAAGGAACGUUAGAUU [JR_ExcNG2_Sub095] (Eterna round: R96, puzzle: Exclusion NG 2) | 43.7 nM | 51.3 nM | 35.6 nM | – | – | –
18 | UUAGCUCAAGUCAGGAUAUUAGAGGCUUGCCUAAAUAAGAAGGGACAUGAGGAUCACCCAUGUCUAUGCAUGUA [BmEX4 A.16] (Eterna round: R97, puzzle: Brourd's mod of Exclusion 4) | 21.5 nM | 15.9 nM | – | – | – | –
19 | UUAGGAUCAGGAUAUGAUGUUUUUUACAUGAGGAUCACCCAUGUUGAUCCUGAUUCAACAUCAGAAGGGAUAAUUU [JR_Ex5_Sub081] (Eterna round: R97, puzzle: Exclusion 5) | 85.2 nM | 21.4 nM | – | – | – | –
20 | UUAGUGUUAGGAUAUCCGGCUCCAAGGCACCAAAACCGGGCGGAGAAGGAACAUGAGGAUCACCCAUGUGACCA [Eternabot (Original) Solution 31] (Eterna round: R97, puzzle: Exclusion 4) | 53.7 nM | 49.1 nM | – | – | – | –
21 | UUAUAAAGUGUGAGGAUAUGCUGGUCGAUAGAUCAGCAGAAGGCACAUGAGGAUCACCCAUGUAAUAUAUUUUA [Mat - Exclusion 4 - JL Mod - D45] (puzzle: Brourd's mod of Exclusion 4) | – | – | – | – | 50 nM | –
22 | UUAUACGUUGAGGAUAUGCGACUUAGUAUAGUUGUAGAAGGCGAUACAUGAGGAUCACCCAUGUUUAUGGGCAU [LRO-Ex6-09] (puzzle: Exclusion 6) | – | – | – | – | 227 nM | –
